Measurements as given in US20240238459.

Test system: T1, substrate sequence FVQWFSKFLGK (SEQ ID NO:3)
T1 sequence: FVQWFSKFLGK

B1: C1S (enzyme, UniProt P09871 16-688, looked up, species assumed)
Complement C1s subcomponent: EPTMYGEILSPNYPQAYPSEVEKSWDIEVPEGYGIHLYFTHLDIELSENCAYDSVQIISGDTEEGRLCGQRSSNNPHSPIVEEFQVPYNKLQVIFKSDFSNEERFTGFAAYYVATDINECTDFVDVPCSHFCNNFIGGYFCSCPPEYFLHDDMKNCGVNCSGDVFTALIGEIASPNYPKPYPENSRCEYQIRLEKGFQVVVTLRREDFDVEAADSAGNCLDSLVFVAGDRQFGPYCGHGFPGPLNIETKSNALDIIFQTDLTGQKKGWKLRYHGDPMPCPKEDTPNSVWEPAKAKYVFRDVVQITCLDGFEVVEGRVGATSFYSTCQSNGKWSNSKLKCQPVDCGIPESIENGKVEDPESTLFGSVIRYTCEEPYYYMENGGGGEYHCAGNGSWVNEVLGPELPKCVPVCGVPREPFEEKQRIIGGSDADIKNFPWQVFFDNPWAGGALINEYWVLTAAHVVEGNREPTMYVGSTSVQTSRLAKSKMLTPEHVFIHPGWKLLEVPEGRTNFDNDIALVRLKDPVKMGPTVSPICLPGTSSDYNLMDGDLGLISGWGRTEKRDRAVRLKAARLPVAPLRKCKEVKVEKPTADAEAYVFTPNMICAGGEKGMDSCKGDSGGAFAVQDPNDKTKFYAAGLVSWGPQCGTYGLYTRVKNYVDWIMKTMQENSTPRED
  protease specificity (cleavage activity; enzyme 5 nM, substrate 60 µM): the substrate sequence is highly specific for granzyme B compared to the other proteases tested

B2: granzyme K (enzyme, UniProt P49863 27-264, looked up, species assumed)
Granzyme K: IIGGKEVSPHSRPFMASIQYGGHHVCGGVLIDPQWVLTAAHCQYRFTKGQSPTVVLGAHSLSKNEASKQTLEIKKFIPFSRVTSDPQSNDIMLVKLQTAAKLNKHVKMLHIRSKTSLRSGTKCKVTGWGATDPDSLRPSDTLREVTVTVLSRKLCNSQSYYNGDPFITKDMVCAGDAKGQKDSCKGDSGGPLICKGVFHAIVSGGHECGVATKPGIYTLLTKKYQTWIKSNLVPPHTN
  protease specificity (cleavage activity; enzyme 5 nM, substrate 60 µM): the substrate sequence is highly specific for granzyme B compared to the other proteases tested
